The target of the test is T1, human amylin receptor (human, UniProt P30988 25-474; O60896 24-148, limits assumed).
T1 construct: whole, on cells; Used as cell membranes prepared from the Amylin 3(a)/CRE-luc BHK cells (Assay V); also called hAmylin-R; hAmylinR
T1 sequence (looked up) 1: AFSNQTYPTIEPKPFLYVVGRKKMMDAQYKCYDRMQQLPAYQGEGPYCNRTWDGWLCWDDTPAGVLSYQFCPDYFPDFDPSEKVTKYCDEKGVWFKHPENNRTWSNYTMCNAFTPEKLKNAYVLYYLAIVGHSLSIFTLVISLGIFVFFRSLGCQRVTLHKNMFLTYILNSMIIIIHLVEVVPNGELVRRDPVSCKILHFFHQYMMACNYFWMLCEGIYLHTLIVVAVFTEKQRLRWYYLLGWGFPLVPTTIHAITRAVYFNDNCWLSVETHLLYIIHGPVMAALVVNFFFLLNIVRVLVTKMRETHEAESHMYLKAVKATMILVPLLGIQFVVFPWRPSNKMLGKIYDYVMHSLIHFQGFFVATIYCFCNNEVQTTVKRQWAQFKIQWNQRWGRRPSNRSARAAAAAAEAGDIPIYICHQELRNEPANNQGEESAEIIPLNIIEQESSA
T1 sequence (looked up) 2: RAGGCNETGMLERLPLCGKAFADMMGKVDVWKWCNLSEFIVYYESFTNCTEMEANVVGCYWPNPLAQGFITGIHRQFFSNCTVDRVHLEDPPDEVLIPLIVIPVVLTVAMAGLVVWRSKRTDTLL
Nature of the test: SPA competition vs 125I-rat amylin, membranes of amylin 3(a) receptor BHK cells (Assay V). The method in brief: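 One-site competition analysis of SPA counts yielded IC₅₀ as a measure of affinity. Membranes were at 35 ng/μL final; incubation was 120 min at 25° C, pH 7.4.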

Numbered stars: 1 amine (or outer) side, 2 acyl side, 3 side chain; on linkers, the order of the positions; unused ones are H or OH. Bridge positions count the residues as written; N and C are the ends. Side chains are listed from the residue outwards. Ends that are not written are not given here. * marks the point of attachment. C20 diacid = O=C(O)CCCCCCCCCCCCCCCCCCC(=O)*; γGlu = O=C(O)[C@H](CCC(=O)[*:2])N[*:1]; AEEA = NCCOCCOCC(=O)O

B1: N^ε1-[2-[2-[2-[[(4S)-4-carboxy-4-(19-carboxynonadecanoylamino)butanoyl]amino]ethoxy]ethoxy]acetyl]-[Arg17,Pro21,Pro27]-h-amylin (peptide)
peptide: K([AEEA-γGlu-C20 diacid])CNTATCATQRLANFLRHSSPNFGAIPSSTNVGSNTY-NH2
modifications: disulfide 2-7; N-terminus assumed
SMILES: CC[C@H](C)[C@H](NC(=O)[C@H](C)NC(=O)CNC(=O)[C@H](Cc1ccccc1)NC(=O)[C@H](CC(N)=O)NC(=O)[C@@H]1CCCN1C(=O)[C@H](CO)NC(=O)[C@H](CO)NC(=O)[C@H](Cc1c[nH]cn1)NC(=O)[C@H](CCCNC(=N)N)NC(=O)[C@H](CC(C)C)NC(=O)[C@H](Cc1ccccc1)NC(=O)[C@H](CC(N)=O)NC(=O)[C@H](C)NC(=O)[C@H](CC(C)C)NC(=O)[C@H](CCCNC(=N)N)NC(=O)[C@H](CCC(N)=O)NC(=O)[C@@H](NC(=O)[C@H](C)NC(=O)[C@@H]1CSSC[C@H](NC(=O)[C@@H](N)CCCCNC(=O)COCCOCCNC(=O)CC[C@H](NC(=O)CCCCCCCCCCCCCCCCCCC(=O)O)C(=O)O)C(=O)N[C@@H](CC(N)=O)C(=O)N[C@@H]([C@@H](C)O)C(=O)N[C@@H](C)C(=O)N[C@@H]([C@@H](C)O)C(=O)N1)[C@@H](C)O)C(=O)N1CCC[C@H]1C(=O)N[C@@H](CO)C(=O)N[C@@H](CO)C(=O)N[C@H](C(=O)N[C@@H](CC(N)=O)C(=O)N[C@H](C(=O)NCC(=O)N[C@@H](CO)C(=O)N[C@@H](CC(N)=O)C(=O)N[C@H](C(=O)N[C@@H](Cc1ccc(O)cc1)C(N)=O)[C@@H](C)O)C(C)C)[C@@H](C)O
notes: also called compound 41
The IC50 is the midpoint of a concentration-inhibition curve. High values mean weaker potency in that assay, low ones greater potency in that assay. Turning to B1, the IC50 was 0.427 nM.

B2: N^ε1-[2-[2-[2-(19-carboxynonadecanoylamino)ethoxy]ethoxy]acetyl]-[Arg17,Pro21,Pro27]-h-amylin (peptide)
peptide: K([AEEA-C20 diacid])CNTATCATQRLANFLRHSSPNFGAIPSSTNVGSNTY-NH2
modifications: disulfide 2-7; N-terminus assumed
SMILES: CC[C@H](C)[C@H](NC(=O)[C@H](C)NC(=O)CNC(=O)[C@H](Cc1ccccc1)NC(=O)[C@H](CC(N)=O)NC(=O)[C@@H]1CCCN1C(=O)[C@H](CO)NC(=O)[C@H](CO)NC(=O)[C@H](Cc1c[nH]cn1)NC(=O)[C@H](CCCNC(=N)N)NC(=O)[C@H](CC(C)C)NC(=O)[C@H](Cc1ccccc1)NC(=O)[C@H](CC(N)=O)NC(=O)[C@H](C)NC(=O)[C@H](CC(C)C)NC(=O)[C@H](CCCNC(=N)N)NC(=O)[C@H](CCC(N)=O)NC(=O)[C@@H](NC(=O)[C@H](C)NC(=O)[C@@H]1CSSC[C@H](NC(=O)[C@@H](N)CCCCNC(=O)COCCOCCNC(=O)CCCCCCCCCCCCCCCCCCC(=O)O)C(=O)N[C@@H](CC(N)=O)C(=O)N[C@@H]([C@@H](C)O)C(=O)N[C@@H](C)C(=O)N[C@@H]([C@@H](C)O)C(=O)N1)[C@@H](C)O)C(=O)N1CCC[C@H]1C(=O)N[C@@H](CO)C(=O)N[C@@H](CO)C(=O)N[C@H](C(=O)N[C@@H](CC(N)=O)C(=O)N[C@H](C(=O)NCC(=O)N[C@@H](CO)C(=O)N[C@@H](CC(N)=O)C(=O)N[C@H](C(=O)N[C@@H](Cc1ccc(O)cc1)C(N)=O)[C@@H](C)O)C(C)C)[C@@H](C)O
notes: also called compound 43
In turn, B2 gave a half-maximal inhibitory concentration (IC50) of 0.076 nM.

(Values after patent US20140087995A1 (published 2014).)
